“Also recorded” adds a separate entry of the source. Marks after values point to notes of the source that are not given here. Primed or numbered codes have the meaning given here. No end group written: not given here. *: point of attachment. His tag″ = six-residue histidine tag (His-tag) at the NH2-terminus, N[C@@H](Cc1c[nH]cn1)C(=O)N[C@@H](Cc1c[nH]cn1)C(=O)N[C@@H](Cc1c[nH]cn1)C(=O)N[C@@H](Cc1c[nH]cn1)C(=O)N[C@@H](Cc1c[nH]cn1)C(=O)N[C@@H](Cc1c[nH]cn1)C(=O)*; His tag = six-residue histidine tag at the N-terminus, N[C@@H](Cc1c[nH]cn1)C(=O)N[C@@H](Cc1c[nH]cn1)C(=O)N[C@@H](Cc1c[nH]cn1)C(=O)N[C@@H](Cc1c[nH]cn1)C(=O)N[C@@H](Cc1c[nH]cn1)C(=O)N[C@@H](Cc1c[nH]cn1)C(=O)*
B1: F:1-83: recombinant N-terminal RNase 7 fragment, amino acids 1 to 83 (SEQ ID NO: 4), N-terminal His tag (protein, listed as Homo sapiens)
chain: KPKGMTSSQWFKIQHMQPSPQACNSAMKNINKHTKRCKDLNTFLHEPFSSVAATCQTPKIACKNGDKNCHQSHGPVSLTMCKL
modifications: N-terminal His tag
B2: F:30-128: recombinant C-terminal RNase 7 fragment, amino acids 30 to 128, N-terminal His tag (protein)
chain: INKHTKRCKDLNTFLHEPFSSVAATCQTPKIACKNGDKNCHQSHGPVSLTMCKLTSGKYPNCRYKEKRQNKSYVVACKPPQKKDSQQFHLVPVHLDRVL
modifications: left off: small tags and cut ends
notes: recombinant C-terminal RNase 7 fragment, amino acids 30 to 128, N-terminal His tag
B3: F:46-128: recombinant C-terminal RNase 7 fragment, amino acids 46 to 128, N-terminal His tag (protein)
chain: EPFSSVAATCQTPKIACKNGDKNCHQSHGPVSLTMCKLTSGKYPNCRYKEKRQNKSYVVACKPPQKKDSQQFHLVPVHLDRVL
modifications: left off: small tags and cut ends
notes: recombinant C-terminal RNase 7 fragment, amino acids 46 to 128, N-terminal His tag
B4: F:1-107: recombinant N-terminal RNase 7 fragment, amino acids 1 to 107 (SEQ ID NO: 6), N-terminal His tag (protein, listed as Homo sapiens)
chain: KPKGMTSSQWFKIQHMQPSPQACNSAMKNINKHTKRCKDLNTFLHEPFSSVAATCQTPKIACKNGDKNCHQSHGPVSLTMCKLTSGKYPNCRYKEKRQNKSYVVACK
modifications: N-terminal His tag
B5: F:56-128: recombinant C-terminal RNase 7 fragment, amino acids 56 to 128, N-terminal His tag (protein)
chain: QTPKIACKNGDKNCHQSHGPVSLTMCKLTSGKYPNCRYKEKRQNKSYVVACKPPQKKDSQQFHLVPVHLDRVL
modifications: left off: small tags and cut ends
notes: recombinant C-terminal RNase 7 fragment, amino acids 56 to 128, N-terminal His tag

Key:
Escherichia coli (UTI89) = experiment: Antimicrobial kill (microdilution) assay, MIC/MBC by CFU count; assay type: cell-based; details: for E. coli MIC: lowest concentration that inhibits the growth of 90% of the inoculation; for E. coli MIC / E. coli MBC: 3 hours, 0.1×PBS; for E. coli MBC: minimum bactericidal concentration; for antimicrobial activity against E. coli (in words): MIC/MBC based, mostly compared to full-length RNase 7
Method: (§1) The antimicrobial activity of RNase 7 and its fragments was estimated using a microdilution assay. Briefly, test bacteria (10^5) were incubated with several concentrations of RNase 7 and each fragment in 50 μl 0.1×PBS buffer for 3 hours in a 37° C. incubator. Each reaction was plated on the appropriate medium and grew overnight at 37° C. The antimicrobial activity was determined by the number of colony-forming units (CFUs) the following day. The minimum inhibition concentration (MIC) is defined as the lowest concentration that inhibits the growth of 90% of the inoculation and the minimum bactericidal concentration (MB C) is defined as the lowest concentration at which less than 99.99% of the initial inoculum is viable.
(§2) Antimicrobial activities of the recombinant peptides were estimated with a microdilution assay. Briefly, the test bacteria (10^4 CFUs) were incubated with various concentrations of RNase 7 and each fragment in 50 ul 0.1×PBS buffer for 3 hours at 37° C. After incubation on Agar plates overnight at 37° C., the number of colony-forming units (CFUs) at each peptide concentration was determined. Using untreated bacterial aliquots as baseline, the minimum inhibition concentration (MIC) was defined as the lowest concentration that inhibits the growth of 90% of the inoculation, and the minimum bactericidal concentration (MBC) was defined as the lowest concentration at which less than 99.99% of the initial inoculum is viable.

[1] = tested on: Staphylococcus saprophyticus (ATCC 15305); experiment: as above; assay type: cell-based; details: for S. saprophyticus MIC: lowest concentration that inhibits the growth of 90% of the inoculation; for S. saprophyticus MIC / S. saprophyticus MBC: 3 hours, 0.1×PBS; for S. saprophyticus MBC: minimum bactericidal concentration; for antimicrobial activity against S. saprophyticus (in words): MIC/MBC based, mostly compared to full-length RNase 7
Method: as §1, §2

[2] = tested on: Proteus mirabilis (ATCC 7002); experiment: as above; assay type: cell-based; details: for antimicrobial activity against P. mirabilis (in words): MIC/MBC based, mostly compared to full-length RNase 7; for P. mirabilis MIC: lowest concentration that inhibits the growth of 90% of the inoculation; for P. mirabilis MIC / P. mirabilis MBC: 3 hours, 0.1×PBS; for P. mirabilis MBC: minimum bactericidal concentration
Method: Uropathogenic Escherichia coli (UTI89) was grown in Luria broth (LB) medium and plated on LB-agar. Uropathogenic Staphylococcus saprophyticus (ATCC 15305) was grown in LB and plated on Trypticase Soy Agar with 5% sheep blood (Fisher Scientific, Pittsburgh, Pa., USA). Uropathogenic Proteus mirabilis (ATCC 7002) was grown in LB and plated on MacConkey II Agar (Fisher Scientific, Pittsburgh, Pa., USA). These organisms were chosen as the primary organisms that account for a majority of Gram-negative and Gram-positive urinary tract infections (UTI). Anti-RNase 7 antibody was generated in rabbit with recombinant human RNase 7 (Biomatik, Wilmington, Del., USA)
as §2

E. coli = experiment: Urinary condition functional assay (OD600 growth curves); assay type: cell-based, Escherichia coli; details: 2 μM peptide, 50, 150, 500 mM NaCl, OD600 for 10 hours, FIG. 4
Method: (§3) Because the urinary environment can have significant variation in salt concentration, ionic composition, and pH, an antimicrobial/bacteriostatic assay was performed to evaluate if pH, calcium, or ionic strength affects the activity of full-length RNase7 or its fragments. The highest activity fragment F:1-97 and lowest activity fragment F:72-128 for these experiments were chosen. Bacteria were inoculated in 1% peptone water and growth to log phase with OD600=0.5. Bacteria were diluted to 1:10 and 1 μl added to 100 μl of 1% peptone water with various pH, CaCl2 or NaCl concentrations that correspond to a physiologic range present in the urine in a 96-well flat bottom plate (Thermo Scientific, Nunc, Worcester, Mass.). To each well, 2 μM of RNase7 or its fragments were added.
(§4) Bacterial growth was monitored using an Absorbance microplate reader (BioTek Instruments, Winooski, Vt.) at a final volume of 110 μl. The turbidity of the culture was measured and recorded at t=0 and every 20 min thereafter for 10 hours using the absorbance at 600 nm (OD600). The values of OD600 values were plotted against times to generate growth curves.

S. saprophyticus = experiment: as above; assay type: cell-based, Staphylococcus saprophyticus
Method: as §3, §4

Proteus mirabilis = experiment: as above; assay type: cell-based
Method: as §3, §4

Molecule | E. coli MIC (Escherichia coli (UTI89)) | E. coli MBC (Escherichia coli (UTI89)) | S. saprophyticus MIC [1] | S. saprophyticus MBC [1] | antimicrobial activity against P. mirabilis (in words) [2] | P. mirabilis MIC [2] | P. mirabilis MBC [2] | antimicrobial activity against E. coli (in words) (Escherichia coli (UTI89)) | activity on E. coli growth at various NaCl titers (E. coli) | activity on S. saprophyticus growth at various NaCl titers (S. saprophyticus; 2 μM peptide, 50, 150, 500 mM NaCl, OD600 for 10 hours, FIG. 7) | activity on S. saprophyticus growth at various pH levels (S. saprophyticus; 2 μM peptide, pH 5, 7, 9, OD600 for 10 hours, FIG. 6) | activity on Proteus mirabilis growth at various NaCl titers (Proteus mirabilis; 2 μM peptide, 50, 150, 500 mM NaCl, OD600 for 10 hours, FIG. 10) | activity on Proteus mirabilis growth at various pH levels (Proteus mirabilis; 2 μM peptide, pH 5, 7, 9, OD600 for 10 hours, FIG. 9) | antimicrobial activity against S. saprophyticus (in words) [1]
F:1-45: recombinant N-terminal RNase 7 fragment, amino acids 1 to 45 (SEQ ID NO: 2), N-terminal His tag ({His tag″}-KPKGMTSSQWFKIQHMQPSPQACNSAMKNINKHTKRCKDLNTFLH; ends and bridges not checked; listed as Homo sapiens) | 0.49 µM | 0.98 µM | 0.13 µM | 0.5 µM | no activity at high concentrations | >7** uM | >7** uM |  |  |  |  |  |  | 
F:72-128: recombinant C-terminal RNase 7 fragment, amino acids 72 to 128, N-terminal His tag ({His tag}-SHGPVSLTMCKLTSGKYPNCRYKEKRQNKSYVVACKPPQKKDSQQFHLVPVHLDRVL; ends and bridges not checked) | 3.5** uM | 7* uM | 3.5** uM | >7** uM |  | >3.5** uM | >3.5** uM | least activity | inhibitory effect of 500 mM NaCl against E. coli was diminished with the addition of F:72-128 | minimal activity against S. saprophyticus at all NaCl concentrations | minimal activity with enhanced growth at pH 7 and 9; also recorded: grew better with the addition of F:72-128 at pH 7 and 9 | minimal activity against P. mirabilis at all NaCl concentrations | minimal activity with enhanced growth at pH 7 and 9 | 
F:84-128: recombinant C-terminal RNase 7 fragment, amino acids 84 to 128, N-terminal His tag ({His tag}-TSGKYPNCRYKEKRQNKSYVVACKPPQKKDSQQFHLVPVHLDRVL; cysteine pairing not given here) | 1.92** uM | >3.5** uM | 1.75 µM | 3.5* uM | poor antimicrobial function against all uropathogens | >3.5** uM | >3.5** uM | poor antimicrobial function against all uropathogens |  |  |  |  |  | poor antimicrobial function against all uropathogens
B1 | 0.43 µM | 0.87 µM | 0.34 µM | 0.69 µM |  | .44 µM | .88 µM |  |  |  |  |  |  | 
B2 | 0.52 µM | 2.07 µM | 0.88* uM | .88 µM |  | >3.5** uM | >3.5** uM |  |  |  |  |  |  | 
B3 | 0.34 µM | .68 µM | 0.22 µM | 1.75* uM |  | 3.5 µM | >3.5** uM |  |  |  |  |  |  | MICs similar to full-length
B4 | 0.57 µM | 0.57 µM | 0.49 µM | >1.96* uM |  | .44 µM | .44 µM |  |  |  |  |  |  | 
B5 | 0.83 µM | 1.65 µM | 0.22 µM | 1.75* uM |  | >7** uM | >7** uM |  |  |  |  |  |  | MICs similar to full-length

— US20150072922A1, “RNASE 7 ANTIMICROBIAL PEPTIDES” (THE RESEARCH INSTITUTE AT NATIONWIDE CHILDREN'S HOSPITAL, priority 2012, published 2015)
